What was measured:
[1] = target: T1, Recombinant PCNA (proliferating cell nuclear antigen) (human, UniProt P12004 1-261); experiment: SPR; 1000 nM caPep
[2] = target: T1, Recombinant PCNA (proliferating cell …); experiment: SPR; 0 nM caPep
[3] = target: T1, Recombinant PCNA (proliferating cell …); experiment: SPR; 500 nM caPep

T1 sequence (P12004 whole entry): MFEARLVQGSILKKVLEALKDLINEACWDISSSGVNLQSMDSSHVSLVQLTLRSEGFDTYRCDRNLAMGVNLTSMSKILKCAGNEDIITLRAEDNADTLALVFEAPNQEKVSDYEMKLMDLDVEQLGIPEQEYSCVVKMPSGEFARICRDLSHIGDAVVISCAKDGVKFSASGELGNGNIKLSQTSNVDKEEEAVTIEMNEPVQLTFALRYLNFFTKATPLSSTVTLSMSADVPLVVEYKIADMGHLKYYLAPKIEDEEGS

- Kd [1]: 250 µM
- Kd [2]: 0.0846 µM
- Kd [3]: 3.33 µM
Binder: SKSRQGSTQGRLDDFF [FEN1 peptide containing the PIP-box]

— publication PMC3984256 (2014)
